± gives the uncertainty stated by the source.
Test: self-splicing fitness, log relative to wild type (ln ratio); higher = more splicing; Tetrahymena group I intron in knt gene, E. coli kanamycin selection, DiMSum; sequences stand for … in CUCUCU…GGAGGGAAAAGUUAUCAGGCAUGCACCUGGUAGCUAGUCUUUAAACCAAUAGAUUGCAUCGGUUUAAAAGGCAAGACCGUCAAAUUGCGGGAAAGGGGUCAACAGCCGUUCAGUACCAAGUCUCAGGGGAAACUUUGAGAUGGCCUUGCAAAGGGUAUGGUAAUAAGCUGACGGACAUGGUCCUAACCACGCAGCCAAGUCCUAAGUCAACAGAUCUUCUGUUGAUAUGGAUGCAGUUCACAGACUAAAUGUCGGUCGGGGAAGAUGUAUUCUUCUCAUAAGAUAUAGUCGGACCUCUCCUUAAUGGGAGCUAGCGGAUGAAGUGAUGCAACACUGGAGCCGCUGGGAACUAAUUUGUAUGCGAAAGUAUAUUGAUUAGUUUUGGAGUACUCGUGGUCG
Summary of the method: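 The eight P1ex-region nucleotides of an intron in the knt kanamycin-resistance gene on pET-22b(+) were all randomised and the library put into E. coli BL21(DE3). Six replicate transformations were grown overnight at 37°C or 30°C on LB agar with or without 25 μg/mL kanamycin, together with 100 μg/mL carbenicillin, 50 μM IPTG and 0.2% rhamnose. Colonies were pooled and amplicon-sequenced on an Illumina HiSeq 2500. Fitness from DiMSum is the error-weighted combination of wild-type-normalised replicate fold changes, kanamycin over none.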

| Sequence | self-splicing fitness (ln) (30 °C) | self-splicing fitness (ln) (37 °C) |
| --- | --- | --- |
| ACCGAGCAAUAUUACGAACU | -2.13 ± 0.13 | -0.803 ± 0.14 |
| CCUCAGCAAUAUUACGUGCA | -4.09 ± 0.37 | -2.32 ± 0.35 |
| UAUUAGCAAUAUUACGGCGC | -1.74 ± 0.13 | -0.453 ± 0.17 |
| UGAGAGCAAUAUUACGAAAC |  | -1.1 ± 0.37 |
| ACAGAGCAAUAUUACGCCGU | -2.59 ± 0.35 | -0.807 ± 0.33 |
| ACACAGCAAUAUUACGUGGU | -4.33 ± 0.16 | -2.82 ± 0.11 |
| UUGGAGCAAUAUUACGAAAG | -2.5 ± 0.33 | -2.08 ± 0.37 |
| GUGUAGCAAUAUUACGUUUG | -2.54 ± 0.27 | -1.44 ± 0.28 |
| GUCUAGCAAUAUUACGGUUC | -0.596 ± 0.089 | 0.433 ± 0.096 |
| UGGAAGCAAUAUUACGAAUA | 0.136 ± 0.41 | -0.685 ± 0.28 |
| ACCAAGCAAUAUUACGGUCC | -2.8 ± 0.12 | -1.07 ± 0.12 |
| GUAGAGCAAUAUUACGGGUA | -4.17 ± 0.35 | -1.75 ± 0.19 |
| UAUUAGCAAUAUUACGCUAA |  | -1.1 ± 0.46 |
| AAGAAGCAAUAUUACGGCCU | -0.278 ± 0.11 | -0.574 ± 0.14 |
| UUAUAGCAAUAUUACGGACU | -2.04 ± 0.35 | -0.965 ± 0.23 |
| UGGUAGCAAUAUUACGCGUA | -1.26 ± 0.24 | -1.56 ± 0.27 |
| CAUGAGCAAUAUUACGGCGC | -3.56 ± 0.25 | -4.32 ± 0.36 |
| CUCCAGCAAUAUUACGAUCG | -1.49 ± 0.063 | -0.922 ± 0.075 |
| UCCAAGCAAUAUUACGUCGU | -0.899 ± 0.073 | -0.178 ± 0.085 |
| CCAAAGCAAUAUUACGUCGG | -3.29 ± 0.18 | -2.23 ± 0.2 |
| UUGGAGCAAUAUUACGACCU | -2.97 ± 0.32 | -0.7 ± 0.38 |
| CAUCAGCAAUAUUACGGUGU | -4.64 ± 0.27 | -1.77 ± 0.12 |

| Sequence | self-splicing fitness (ln) (30 °C) | self-splicing fitness (ln) (37 °C) |
| --- | --- | --- |
| GCUAAGCAAUAUUACGCCUU | -1.43 ± 0.11 | -0.0502 ± 0.14 |
| UACUAGCAAUAUUACGCAUC | -2.36 ± 0.14 | -1.53 ± 0.18 |
| UGGCAGCAAUAUUACGAUCC | -0.653 ± 0.3 | -0.564 ± 0.29 |
| AAGUAGCAAUAUUACGCGCG | -0.335 ± 0.087 | -0.184 ± 0.12 |
| AAGUAGCAAUAUUACGUAUA | -1.96 ± 0.13 | -2.15 ± 0.14 |
| AUAGAGCAAUAUUACGUGCU | -1.24 ± 0.25 |  |
| GCGUAGCAAUAUUACGAAGU | -2.22 ± 0.15 | -1.11 ± 0.16 |
| CCUAAGCAAUAUUACGCUAG | -3.75 ± 0.47 | -1.64 ± 0.3 |
| GGUUAGCAAUAUUACGUUAG | -2.34 ± 0.13 | -1.69 ± 0.19 |
| CUCUAGCAAUAUUACGGUUG | -1.83 ± 0.12 | -0.869 ± 0.14 |
| UAGAAGCAAUAUUACGCGGU | -4.94 ± 0.42 | -2.37 ± 0.24 |
| GGCUAGCAAUAUUACGUUUC | -0.818 ± 0.11 | -0.182 ± 0.12 |
| GCCUAGCAAUAUUACGUGGG | -4.52 ± 0.23 | -3.36 ± 0.3 |
| GAAGAGCAAUAUUACGACGA |  | -2.03 ± 0.42 |
| UCUCAGCAAUAUUACGGAGU | -2.81 ± 0.22 | -2.49 ± 0.19 |
| UAUAAGCAAUAUUACGGGUC | -3.27 ± 0.34 | -1.78 ± 0.24 |
| UACGAGCAAUAUUACGCAAU | -3.04 ± 0.17 | -2.65 ± 0.18 |
| UCUAAGCAAUAUUACGUUUG | -3.95 ± 0.3 | -2.4 ± 0.24 |
| UCGAAGCAAUAUUACGCGCC |  | -1.49 ± 0.28 |
| GCAGAGCAAUAUUACGUUGA | -2.53 ± 0.2 | -2.15 ± 0.25 |
| CAAUAGCAAUAUUACGCAUU | -4.62 ± 0.24 | -2.71 ± 0.17 |

Reference: the supplement of paper PMC7877785
